Reference: article PMC11682927

Target: His-BACH1-BTB (amino acids 7-128) (human) (UniProt O14867)
Assay: SEC-MALS

Sequence of Tag-free FBXO22-SKP1 complex (Q8NEZ5 whole entry): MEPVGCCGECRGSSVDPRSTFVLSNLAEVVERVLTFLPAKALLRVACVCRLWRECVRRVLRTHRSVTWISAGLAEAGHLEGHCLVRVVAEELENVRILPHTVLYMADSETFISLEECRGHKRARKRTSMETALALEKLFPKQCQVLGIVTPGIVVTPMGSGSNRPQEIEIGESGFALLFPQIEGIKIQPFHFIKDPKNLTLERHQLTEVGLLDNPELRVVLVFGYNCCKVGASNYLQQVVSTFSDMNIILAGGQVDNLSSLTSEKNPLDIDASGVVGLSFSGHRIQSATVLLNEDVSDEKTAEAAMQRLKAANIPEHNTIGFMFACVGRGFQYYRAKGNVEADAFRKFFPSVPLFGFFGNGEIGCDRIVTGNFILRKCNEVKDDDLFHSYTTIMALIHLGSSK
Sequence of Tag-free FBXO22-SKP1 complex (P63208 whole entry): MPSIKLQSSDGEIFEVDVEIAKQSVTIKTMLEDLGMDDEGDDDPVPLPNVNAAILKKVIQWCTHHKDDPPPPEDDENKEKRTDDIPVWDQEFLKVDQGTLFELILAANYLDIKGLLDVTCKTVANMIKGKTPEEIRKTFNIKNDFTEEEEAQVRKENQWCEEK
Sequence of His-BACH1-BTB (amino acids 7-128) (human) (O14867 7-128): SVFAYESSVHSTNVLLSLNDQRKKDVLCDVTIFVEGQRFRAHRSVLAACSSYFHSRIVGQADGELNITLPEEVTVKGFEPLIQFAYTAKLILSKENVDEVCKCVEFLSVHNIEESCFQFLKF

Tag-free FBXO22-SKP1 complex (from UniProt Q8NEZ5 1-403; P63208 1-163)
stoichiometry N (FBXO22-SKP1 per BACH1 BTB dimer): 1
